Blank lines part the entries; values can stand above or below the binder they belong to.
Columns and labels:
[1] = target: the molecule itself; experiment: SEC; Superdex 75 1660 prep grade column, step of the purification after Ni-NTA
KaiA = target: T1, KaiA (Synechococcus elongatus, UniProt Q79PF6 1-284); experiment: co-IP; in vitro KaiABC clock reaction of purified proteins (KaiC present), time course; KaiB-FLAG precipitated with monoclonal anti-FLAG M2 antibody, eluted with 3xFLAG peptide; KaiA left in the supernatant quantified by SDS-PAGE (SYPRO Ruby) against 1.5 uM GFP as internal standard; settings: both partners purified
T1 construct: KaiA, circadian clock protein of Synechococcus elongatus; source: expressed and purified as previously described (Phong et al, 2013); anion exchange on HiTrap Q columns
T1 sequence (looked up): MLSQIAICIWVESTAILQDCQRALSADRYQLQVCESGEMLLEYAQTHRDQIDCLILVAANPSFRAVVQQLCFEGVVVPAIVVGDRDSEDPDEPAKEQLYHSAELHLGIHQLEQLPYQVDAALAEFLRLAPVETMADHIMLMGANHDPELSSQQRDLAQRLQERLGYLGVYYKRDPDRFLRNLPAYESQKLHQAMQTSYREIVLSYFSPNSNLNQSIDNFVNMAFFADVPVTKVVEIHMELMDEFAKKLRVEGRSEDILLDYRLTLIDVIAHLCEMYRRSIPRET

B1: C-terminal domain of KaiA (residues 181-284) (domain or fragment, Synechococcus elongatus, UniProt Q79PF6 181-284, looked up)
chain: NLPAYESQKLHQAMQTSYREIVLSYFSPNSNLNQSIDNFVNMAFFADVPVTKVVEIHMELMDEFAKKLRVEGRSEDILLDYRLTLIDVIAHLCEMYRRSIPRET
notes: KaiA of Synechococcus elongatus, C-terminal domain, residues 181-284; Uniformly 15N labelled, grown in deuterated water, for NMR; Purified as described in Chang et al, 2011, 2012; Tseng et al, 2014; also called C-terminal KaiA; source: E. coli BL21(DE3), M9 media with 15N NH4Cl in 98% D2O, purified (Ni-NTA, SEC on Superdex 75)
stoichiometry N [1]: 2

binding result (KaiA): binds
B2: KaiB-FLAG (natural protein, Synechococcus elongatus, UniProt Q79PF5 1-102, looked up)
chain: MSPRKTYILKLYVAGNTPNSVRALKTLKNILEVEFQGVYALKVIDVLKNPQLAEEDKILATPTLAKVLPLPVRRIIGDLSDREKVLIGLDLLYGELQDSDDF
notes: KaiB, circadian clock protein of Synechococcus elongatus; also called FLAG-tagged KaiB; source: expressed and purified as previously described (Phong et al, 2013); anion exchange on HiTrap Q columns

Source: PMC7271899, “Bayesian modeling reveals metabolite‐dependent ultrasensitivity in the cyanobacterial circadian clock” (Molecular Systems Biology, 2020)
